These are literature values, as cited in PMC4353500.

For one series, the target named is Cavβ2a (UniProt Q08289).
In another series the target is Cavβ4b (UniProt D4A055).

Chain of Cavβ2a (Q08289 whole entry): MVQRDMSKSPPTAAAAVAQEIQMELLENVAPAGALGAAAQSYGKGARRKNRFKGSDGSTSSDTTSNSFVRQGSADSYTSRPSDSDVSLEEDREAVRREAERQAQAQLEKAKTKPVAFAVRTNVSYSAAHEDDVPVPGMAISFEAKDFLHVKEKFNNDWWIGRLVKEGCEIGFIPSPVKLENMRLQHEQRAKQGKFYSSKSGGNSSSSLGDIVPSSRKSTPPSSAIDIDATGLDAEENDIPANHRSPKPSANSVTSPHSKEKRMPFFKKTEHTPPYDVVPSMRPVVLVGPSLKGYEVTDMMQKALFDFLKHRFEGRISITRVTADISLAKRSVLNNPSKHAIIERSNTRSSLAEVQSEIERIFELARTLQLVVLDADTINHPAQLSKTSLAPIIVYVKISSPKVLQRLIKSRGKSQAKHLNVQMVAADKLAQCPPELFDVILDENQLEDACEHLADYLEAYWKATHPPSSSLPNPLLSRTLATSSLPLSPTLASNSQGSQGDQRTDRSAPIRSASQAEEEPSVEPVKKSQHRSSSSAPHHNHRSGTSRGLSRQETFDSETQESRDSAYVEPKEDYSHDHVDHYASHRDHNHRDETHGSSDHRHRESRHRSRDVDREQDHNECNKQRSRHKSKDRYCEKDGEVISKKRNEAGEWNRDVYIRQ

For RIM1 CTD (from UniProt Q99NE5), the dissociation constant (Kd) with Cavβ2a and in the series with Cavβ4b was 35 nM in each case.

The term Kd denotes a measure of binding affinity in units of concentration.
